From US20250147051A1, “METHOD FOR DETECTING A TAU PROTEIN IN A SALIVA SAMPLE” (GTINVENT LIMITED, priority 2022, published 2025)
Numbering of substitutions follows the chain as printed.

What was measured:
tau = assay: Western blot of mouse brain homogenates (WT, L66+/+, L1+/+); conditions: 20 μg brain homogenate protein, 5-month-old WT, L1+/+ mice
Experimental: Protein equivalent to 20 μg from each brain extract was separated using 4-20% bis-tris gels and run in 1×MES buffer. […] A clear band is visible in the lanes containing L66^+/+ samples, but no other bands are detectable (WT or L1^+/+). […] Once again, a band having relative mobility of 65 kDa is visible in the L66 sample with no other reactive bands present.
This band most likely corresponds to endogenous mouse tau which is of a similar size. In the L66^+/+ samples, a second band running at approximately 68 kDa is also detected. The presence of numerous other bands indicates proteolytic truncation of tau within brain homogenates.

dGA = dGA (Homo sapiens, UniProt P10636); assay: Biacore X100 SPR binding kinetics of anti-tau scAbs (scAb captured via HuCk), analyte dGA; conditions: lead scAbs; for ka: Table 24; for dissociation rate constant (kd): Table 24, dissociation rate
dGA, sequence (P10636 614-707): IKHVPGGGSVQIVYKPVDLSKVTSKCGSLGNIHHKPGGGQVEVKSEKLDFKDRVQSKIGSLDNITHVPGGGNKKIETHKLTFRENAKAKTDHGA
Experimental: Surface plasmon resonance (SPR) is widely regarded as the gold standard for real time measurement of protein-protein interactions such as antibody binding. All SPR experiments were carried out using a Biacore X100 machine and HBS EP+ running buffer (GE Healthcare). A ‘capture’ method was followed for affinity measurements, where an anti-human constant kappa chain (HuCk) antibody was conjugated to the surface of a CM5 sensor chip using an amine coupling kit and scAb molecules were immobilised via their HuCk domain. Amine coupling is a very common approach for immobilising the ligand to the chip surface. The chip surface has a dextran matrix derivatised with carboxyl groups, which after activation with N-hydroxysuccinimide (NHS) and 1-ethyl-3-(3-dimethylaminopropyl) carbodiimide (EDC), form reactive succinimide esters which allows the covalent capturing of the ligand via any available primary amine groups (e.g. Lysine) on the ligand (in this case anti-HuCk antibody). The capture antibody was diluted 1/100 in 10 mM Sodium acetate buffer pH 5.0 and passed over the activated chip surface for a period of at least 420 s. Final ligand immobilisation levels over 12,000 RU were deemed to be satisfactory.
Following immobilisation, the level of each scAb to be captured was identified using the standard SPR equation with a theoretical RMax of 100 RU. Analyte MW refers to the molecular weight of hT40 or dGA/dGAE molecules, while ligand MW refers to the molecular weight of the scAbs tested. RLis the desired capture level and S refers to the stoichiometric ratio:
The scAb to be tested was added only to flow cell 2 so that flow cell 1 could act as a control to subtract any interaction with the analyte and the chip surface. Both single and multi-cycle runs were utilised using wizards developed in the Biacore X100 control software which are both accepted methods of kinetic analysis (Karlsson, R., et al. Analyzing a kinetic titration series using affinity biosensors (2006) Analytical Biochemistry 349:136-47). The multi-cycle protocol was as follows-Three start-up cycles composed of an initial capture, to the desired level, of the scAb to be tested was performed followed by a 30 s injection of glycine buffer pH 2.0 after each cycle to regenerate the chip surface. The regeneration step removed any captured scAb whilst leaving the capture antibody intact and able to repeat the capture for the next cycle. Following three start-up cycles increasing concentrations (0.15625 nM-100 nM) of the target to be tested were added to the chip surface after the desired scAb capture. The target was added for a 120 s association period and 420 s dissociation period followed by another regeneration, 30 s injection of glycine buffer pH 2.0 in between each cycle.
The single cycle kinetics protocol was similar and utilised the same level of scAb capture. Three start-up cycles were used followed by 5 increasing concentrations of the analyte (6.25 nM-100 nM) for an association period of 120 s followed by a dissociation period of 420 s for each concentration. In single cycle kinetics the regeneration step was performed only after the final analyte concentration was added. Binding responses were analysed in Biacore X100 evaluation software and data fitted to a 1:1 binding model to obtain kinetic and affinity characterisation.

core region tau = assay: S1D12 immunotherapy 6-week repeat-dose mouse study, plasma tau by CA4-S1G2 core-core Simoa assay; type: in vivo
Experimental: A total of 12 wildtype, 12 Line 1 and 12 Line 66 female mice were used in this study—Line 1 and Line 66 are transgenic mouse models of tauopathy (Melis et al., 2015). Animals were 2 months old at the beginning of the study. Mice of each genotype were injected intraperitoneally (i.p.) with either vehicle or S1D12 mAb (30 mg/kg), once per week, for six consecutive weeks.
Seven days post final dose, cardiac puncture blood sampling was performed. mice were anaesthetised using an overdose of sodium pentobarbital (i.p.) and blood was collected via cardiac puncture through a Plastipak syringe pre-rinsed with heparinised saline (10 U/mL) and transferred into a plastic vial containing lithium heparin anticoagulant. Blood samples were centrifuged to obtain plasma at 2,000×g for 5 min at 6° C.
In order to monitor the ‘treatment effect’ of S1D12 mAb, plasma tau of vehicle control and antibody treated L66^+/+ mice were assessed via a core-core homebrew Simoa® assay to investigate changes in core tau pools in these mice.

dGAE aggregates = target: T1, dGAE aggregates (Homo sapiens, UniProt P10636); assay: Sandwich ELISA LoD for SDS Triton X-100 treated dGAE aggregates; type: binding; conditions: label = detection scAb
T1 construct: host or cells: aggregated in house: 100 μM dGAE with DTT, 700 rpm, 37 °C, 24 h
T1 sequence (P10636 614-708): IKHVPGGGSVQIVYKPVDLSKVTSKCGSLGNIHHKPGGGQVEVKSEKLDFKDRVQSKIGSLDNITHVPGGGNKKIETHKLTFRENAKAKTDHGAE
Experimental: For aggregation, 1000 μL 100 μM dGAE+10 μL 10 mM DTT was added to a ‘LoBind’ microfuge tubes and agitated at 700 RPM/37° C. for 24 hours. Resulting sample centrifuged at 17,000×g/4° C. for 60 min and supernatant discarded to remove left over monomer. Pellet resuspended in half the original volume for future experiments and hereafter referred to as ‘aggregates’. 1 μl of aggregates was added to 1 ml of PBS and SDS was added to a final concentration of 1% (w/v). This was left to incubate on lab bench for 1 h with gentle agitation every 15 minutes. In order to neutralise the SDS effect on ELISA, Triton X-100 added to a final concentration of 3% (v/v) and mixed gently by pipetting to prevent any bubble formation. 200 μl added of this mix was to the first well of an ELISA plate coated with 1 μg/ml S1D12 mAb and blocked with 2% MPBS. Similarly aggregates treated with only SDS or Triton X-100, untreated aggregates, dGAE monomers treated with only SDS or SDS+Titon X-100 were also added to designated wells as controls. All samples were then double diluted across the plate in final volumes of 100 μl. The final column was left with no protein to act as a blank. This was allowed to stand at room temperature for 1 hour followed by the addition of detection scAb-S1G2 at 10 μg/ml. Anti-HuCk HRP labelled secondary antibody was added as described previously and ELISA data generated was represented using the graph below. In addition, limits of detection (LoD) of various core binding antibody pairing for SDS Triton X-100 treated dGAE aggregates were calculated using the above describe ELISA method and substituting capture mAbs and detection scAbs as shown in Table 30.

[1] = 30 mg/kg i.p. once per week for six weeks, CA4-S1G2 Simoa

B1: CC7: anti-tau clone, SEQ ID NO: 365 (protein)
scFv: QVQLQESGPSLVKPSQTLSLTCTVSGFSLTSNAVIWVRQAPGKAPEWVALIDVDGDAAYDPALKSRLSITRDTSKSQVSLSLRSVTTEDTAVYYCARDYGSWGYVSDIDYWGPGLLVTVSSEGKSSGASGESKVDDRVVRTQPSSVSGSLGQRVSITCSGSYITGSSVGWFQQVPGSGLKTVIYDNNDRPSGVPDRFSGSKSGDTATLTISSLQAEDEADYYCASYDTSNIGLFGSGTRLTVLG
modifications: CC7 amino acid sequence
tau
  Western blot reactivity: specificity for human tau

B2: S1D12: anti-tau binding molecule defined by its CDRs; scAb sequence SEQ ID NO: 32 (protein)
scFv: QVQLQESGPSLVKPSQTLSLTCTVSGFSLNNNAVGWVRQAPGKVPESLVGCSSDGTCYYNSALKSRLDITRDTSKNQISLSLSSVTTDDAAVYYCTRGHYSIYGYDYLGTIDYWGPGLLVTVSSEGKSSGASGESKVDDQAVLTQPSSVSGSLGQRVSITCSGSSSNVGGGNSVGWYQHLPGSGLKTIIYDTNSRPSGVPDRFSGSRSGNTATLTINSLQAEDEGDYYCVTGDSTTHDDLVGSGTRLTVLG
modifications: S1D12 amino acid sequence
dGA
  ka: 1.21e+06 M⁻¹ s⁻¹
  dissociation rate constant (kd): 0.000418 s⁻¹
tau
  Western blot reactivity: A band is detected in each sample (WT, L66^+/+ and L1^+/+)
Core region tau; [1]
  plasma tau, L66+/+ mice with S1D12 treatment: 3.52 (0.20) ng/ml
Core region tau; CA4-S1G2 pairing, n=5 or 6
  increase of core region tau in plasma vs vehicle group, L1: more than 100 fold
  increase of core region tau in plasma vs vehicle group, L66: more than a threefold increase
  increase of core region tau in plasma vs vehicle group, wild-type: less than a two-fold increase

B3: NS2A1: anti-tau clone, SEQ ID NO: 220 (protein)
scFv: QVQLQESGPSLVKPSQTLSLTCTVSGFSLSTNSVGWVRQAPGKAPEWVAGIDTDGEEGFNPVLKSRLSITRDTSKSQVSLSLSNVTSEDTAVYYCGRSYRTDGLAYGYVQAIDYWGPGLLVTISSEGKSSGASGESKVDDQSVLTQPSSVSGSPGQTVSITCSGSYIGSSGVGWFQQLPGSGLRTIIVASDGRPSGVPDGFSMSKSGNTATLTISSLQAEDEADYFCGSSDRTQYTGLFGSGTRLTVLG
modifications: NS2A1 amino acid sequence
dGA
  ka: 188000 M⁻¹ s⁻¹
  dissociation rate constant (kd): 0.00102 s⁻¹

B4: CA12: anti-tau clone, SEQ ID NO: 372 (protein)
scFv: QVQLQGSGPSLVKPSQTLSLTCTVSGFSFDSYYVGWVRQAPGKALEWLGNIYSTGRAFYNPALKSRLSITRDTSKSQVSLSVSSVTIEDTALYYCVRGSYYHGGGNGMVDFFDYWSPGLLVTVSSEGKSSGASGESKVDDQVVRTQPSSVSGSLGQRVSITCSGSSSNVGYGNYVGWFQQVPGSAPKLLIYAATSRASGVPDRFSGSRSGNTATLTIDSLQAEDEADYYCSSYQRGNTGVFGSGTRLTVLG
modifications: CA12 amino acid sequence
dGAE aggregates
  LoD, S1D12 mAb capture, +SDS Triton dGAE agg.: 2 ng/mL
  LoD, direct immobilisation of dGAE aggregates, +SDS Triton dGAE agg.: 16 ng/mL

B5: S1E12: anti-tau clone, SEQ ID NO: 218 (protein)
scFv: QVQLQESGPSLVKPSQTLSLTCTVSGFSLGSNSVGWVRQAPGKAPEWVAGIDTDGEEGYNPALNSRLSITRDTSKSQVSLSLSSVTSEDTAVYYCGRSYRADGLAYGYVQAIDYWGPGLLVTVSSEGKSSGASGESKVDDRVVRTQPSSVSGSLGQRVSITCSGSFIGISSVGWFQQLPGSGLRTIIVASDGRPSGVPDRFSMSKSGNTATLTISSLQAEDEADYFCGSSDRTQYTGVFGSGTRLTVLG
modifications: S1E12 amino acid sequence
dGA
  ka: 2.99e+06 M⁻¹ s⁻¹
  dissociation rate constant (kd): 0.001627 s⁻¹

B6: CA9: anti-tau clone, SEQ ID NO: 371 (protein)
scFv: B5 scFv with G30T, A101S, R141Q, V142A, R144L, S148A
modifications: CA9 amino acid sequence
dGAE aggregates
  LoD, S1D12 mAb capture, +SDS Triton dGAE agg.: 4 ng/mL
  LoD, direct immobilisation of dGAE aggregates, +SDS Triton dGAE agg.: 40 ng/mL

B7: S1D12 mAb: S1D12 reformatted as mAb; heavy chain SEQ ID NO: 445, light chain SEQ ID NO: 446 (antibody)
heavy: QVQLQESGPSLVKPSQTLSLTCTVSGFSLNNNAVGWVRQAPGKVPESLVGCSSDGTCYYNSALKSRLDITRDTSKNQISLSLSSVTTDDAAVYYCTRGHYSIYGYDYLGTIDYWGPGLLVTVSSAKTTAPSVYPLAPVCGDTTGSSVTLGCLVKGYFPEPVTLTWNSGSLSSGVHTFPAVLQSDLYTLSSSVTVTSSTWPSQSITCNVAHPASSTKVDKKIEPRGPTIKPCPPCKCPAPNLLGGPSVFIFPPKIKDVLMISLSPIVTCVVVDVSEDDPDVQISWFVNNVEVHTAQTQTHREDYNSTLRVVSALPIQHQDWMSGKEFKCKVNNKDLPAPIERTISKPKGSVRAPQVYVLPPPEEEMTKKQVTLTCMVTDFMPEDIYVEWTNNGKTELNYKNTEPVLDSDGSYFMYSKLRVEKKNWVERNSYSCSVVHEGLHNHHTTKSFSRTPGK
light: QAVLTQPSSVSGSLGQRVSITCSGSSSNVGGGNSVGWYQHLPGSGLKTIIYDTNSRPSGVPDRFSGSRSGNTATLTINSLQAEDEGDYYCVTGDSTTHDDLVGSGTRLTVLGGQPKSSPSVTLFPPSSEELETNKATLVCTITDFYPGVVTVDWKVDGTPVTQGMETTQPSKQSNNKYMASSYLTLTARAWERHSSYSCQVTHEGHTVEKSLSRADCS
modifications: S1D12 mAB Heavy Chain; S1D12 mAB Light Chain
Core region tau; [1]
  plasma tau, wildtype mice with treatment: 3.57 (0.22) ng/ml
Core region tau; 30 mg/kg i.p. once per week for six weeks, CA4-S1G2 Simoa, above upper limit of detection
  plasma tau, L1 mice with S1D12 treatment: > 100 ng/mL
